Experimental data taken from the supplement of paper PMC10065799, “High-throughput profiling of sequence recognition by tyrosine kinases and SH2 domains using bacterial peptide display” (eLife, 2023).

How the values were obtained:
[1] = system: c-Src; assay: phosphorylation enrichment, bacterial display (enrichment ratio); higher = better substrate or ligand; peptides without Tyr show the background
[2] = system: c-Abl (mouse); assay: as above
[3] = target: Hck (UniProt P08631); assay: as above
Chain of Hck (P08631 whole entry, looked up): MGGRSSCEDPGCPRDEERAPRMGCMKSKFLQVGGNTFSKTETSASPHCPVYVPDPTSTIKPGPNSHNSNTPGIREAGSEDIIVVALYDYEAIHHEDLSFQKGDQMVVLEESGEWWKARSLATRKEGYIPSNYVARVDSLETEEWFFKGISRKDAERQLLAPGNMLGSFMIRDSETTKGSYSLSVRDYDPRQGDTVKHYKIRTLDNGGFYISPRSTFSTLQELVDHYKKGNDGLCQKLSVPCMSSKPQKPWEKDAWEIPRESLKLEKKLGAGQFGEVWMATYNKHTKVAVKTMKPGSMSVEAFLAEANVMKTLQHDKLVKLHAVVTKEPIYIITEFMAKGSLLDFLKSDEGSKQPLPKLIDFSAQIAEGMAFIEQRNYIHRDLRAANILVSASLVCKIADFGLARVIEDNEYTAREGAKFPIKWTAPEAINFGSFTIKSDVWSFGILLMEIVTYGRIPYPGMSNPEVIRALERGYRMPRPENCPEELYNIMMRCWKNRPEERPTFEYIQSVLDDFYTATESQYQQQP

[4] = target: MERTK (UniProt Q12866); assay: as above
[5] = system: AncSZ; assay: as above
[6] = target: EPHB2 (UniProt P29323); assay: as above
Chain of EPHB2 (P29323 whole entry, looked up): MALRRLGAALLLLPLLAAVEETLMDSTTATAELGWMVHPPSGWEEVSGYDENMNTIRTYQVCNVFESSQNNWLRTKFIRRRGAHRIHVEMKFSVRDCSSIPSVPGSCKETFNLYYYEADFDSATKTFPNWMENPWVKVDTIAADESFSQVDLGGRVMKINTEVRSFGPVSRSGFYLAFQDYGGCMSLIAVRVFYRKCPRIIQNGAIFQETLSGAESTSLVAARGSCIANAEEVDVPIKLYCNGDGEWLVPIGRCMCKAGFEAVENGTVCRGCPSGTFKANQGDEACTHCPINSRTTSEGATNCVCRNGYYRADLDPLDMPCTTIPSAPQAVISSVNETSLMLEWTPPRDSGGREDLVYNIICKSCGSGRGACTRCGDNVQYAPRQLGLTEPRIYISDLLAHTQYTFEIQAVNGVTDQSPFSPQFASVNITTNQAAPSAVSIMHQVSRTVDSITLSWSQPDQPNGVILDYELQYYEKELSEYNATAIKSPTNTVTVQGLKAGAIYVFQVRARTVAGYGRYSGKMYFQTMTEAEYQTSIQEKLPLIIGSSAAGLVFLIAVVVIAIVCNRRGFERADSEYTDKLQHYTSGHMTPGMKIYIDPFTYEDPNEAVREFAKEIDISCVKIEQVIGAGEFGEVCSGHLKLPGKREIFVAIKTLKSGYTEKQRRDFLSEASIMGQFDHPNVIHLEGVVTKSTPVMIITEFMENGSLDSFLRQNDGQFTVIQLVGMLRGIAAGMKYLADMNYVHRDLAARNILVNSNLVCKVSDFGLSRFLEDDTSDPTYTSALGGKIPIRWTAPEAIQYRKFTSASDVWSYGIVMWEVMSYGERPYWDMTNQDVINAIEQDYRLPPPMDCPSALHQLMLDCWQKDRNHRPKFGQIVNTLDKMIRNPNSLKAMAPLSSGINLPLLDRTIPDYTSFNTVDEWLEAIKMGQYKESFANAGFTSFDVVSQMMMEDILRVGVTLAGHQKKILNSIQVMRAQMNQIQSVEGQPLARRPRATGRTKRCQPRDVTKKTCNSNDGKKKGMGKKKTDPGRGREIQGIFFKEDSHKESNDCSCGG

[7] = target: Fyn (UniProt P06241); assay: as above
Chain of Fyn (P06241 whole entry, looked up): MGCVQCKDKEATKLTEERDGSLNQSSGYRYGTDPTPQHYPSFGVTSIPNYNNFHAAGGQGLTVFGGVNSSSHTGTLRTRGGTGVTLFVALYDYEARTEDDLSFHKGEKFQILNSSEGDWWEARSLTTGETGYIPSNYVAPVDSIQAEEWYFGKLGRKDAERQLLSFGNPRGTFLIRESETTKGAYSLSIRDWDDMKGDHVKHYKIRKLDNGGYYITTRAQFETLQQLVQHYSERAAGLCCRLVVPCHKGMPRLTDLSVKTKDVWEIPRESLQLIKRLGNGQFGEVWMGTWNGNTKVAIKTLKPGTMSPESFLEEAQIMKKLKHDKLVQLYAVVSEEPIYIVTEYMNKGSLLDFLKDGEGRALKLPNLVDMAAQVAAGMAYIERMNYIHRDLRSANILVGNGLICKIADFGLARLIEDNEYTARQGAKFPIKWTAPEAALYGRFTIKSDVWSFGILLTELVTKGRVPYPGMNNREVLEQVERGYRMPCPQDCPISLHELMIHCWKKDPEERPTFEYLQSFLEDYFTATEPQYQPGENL

[8] = target: Fes (UniProt P07332); assay: as above
[9] = target: Jak2 (UniProt O60674); assay: as above
Chain of Jak2 (O60674 whole entry, looked up): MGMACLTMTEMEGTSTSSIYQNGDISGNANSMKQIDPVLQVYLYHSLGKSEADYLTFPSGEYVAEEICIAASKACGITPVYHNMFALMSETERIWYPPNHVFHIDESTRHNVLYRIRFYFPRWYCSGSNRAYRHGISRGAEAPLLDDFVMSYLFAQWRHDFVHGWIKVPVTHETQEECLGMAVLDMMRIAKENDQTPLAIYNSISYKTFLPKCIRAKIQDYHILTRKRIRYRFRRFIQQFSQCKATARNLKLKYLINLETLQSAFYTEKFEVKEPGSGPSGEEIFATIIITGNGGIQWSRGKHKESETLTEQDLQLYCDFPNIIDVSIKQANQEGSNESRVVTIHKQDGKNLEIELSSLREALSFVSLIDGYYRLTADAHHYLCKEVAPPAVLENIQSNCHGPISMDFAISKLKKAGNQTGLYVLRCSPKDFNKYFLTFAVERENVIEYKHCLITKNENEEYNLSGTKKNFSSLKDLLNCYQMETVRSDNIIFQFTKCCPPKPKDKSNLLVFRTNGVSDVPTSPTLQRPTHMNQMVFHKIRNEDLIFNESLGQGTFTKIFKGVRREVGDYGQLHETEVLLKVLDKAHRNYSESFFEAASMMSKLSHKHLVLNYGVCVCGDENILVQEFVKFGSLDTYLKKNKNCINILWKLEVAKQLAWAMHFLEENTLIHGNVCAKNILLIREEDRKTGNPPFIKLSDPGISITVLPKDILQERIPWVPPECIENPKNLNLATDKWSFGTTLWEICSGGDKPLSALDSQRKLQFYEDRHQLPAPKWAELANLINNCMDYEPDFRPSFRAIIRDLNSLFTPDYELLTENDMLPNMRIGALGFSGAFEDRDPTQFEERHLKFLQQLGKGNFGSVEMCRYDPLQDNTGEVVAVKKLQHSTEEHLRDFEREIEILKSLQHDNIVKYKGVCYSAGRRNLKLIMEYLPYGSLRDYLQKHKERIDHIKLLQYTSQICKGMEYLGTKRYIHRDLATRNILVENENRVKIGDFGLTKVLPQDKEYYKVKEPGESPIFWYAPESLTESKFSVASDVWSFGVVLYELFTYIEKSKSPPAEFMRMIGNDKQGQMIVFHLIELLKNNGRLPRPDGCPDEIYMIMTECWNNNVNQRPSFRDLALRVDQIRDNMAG

[10] = target: FGFR1 (UniProt P11362); assay: as above
Chain of FGFR1 (P11362 whole entry, looked up): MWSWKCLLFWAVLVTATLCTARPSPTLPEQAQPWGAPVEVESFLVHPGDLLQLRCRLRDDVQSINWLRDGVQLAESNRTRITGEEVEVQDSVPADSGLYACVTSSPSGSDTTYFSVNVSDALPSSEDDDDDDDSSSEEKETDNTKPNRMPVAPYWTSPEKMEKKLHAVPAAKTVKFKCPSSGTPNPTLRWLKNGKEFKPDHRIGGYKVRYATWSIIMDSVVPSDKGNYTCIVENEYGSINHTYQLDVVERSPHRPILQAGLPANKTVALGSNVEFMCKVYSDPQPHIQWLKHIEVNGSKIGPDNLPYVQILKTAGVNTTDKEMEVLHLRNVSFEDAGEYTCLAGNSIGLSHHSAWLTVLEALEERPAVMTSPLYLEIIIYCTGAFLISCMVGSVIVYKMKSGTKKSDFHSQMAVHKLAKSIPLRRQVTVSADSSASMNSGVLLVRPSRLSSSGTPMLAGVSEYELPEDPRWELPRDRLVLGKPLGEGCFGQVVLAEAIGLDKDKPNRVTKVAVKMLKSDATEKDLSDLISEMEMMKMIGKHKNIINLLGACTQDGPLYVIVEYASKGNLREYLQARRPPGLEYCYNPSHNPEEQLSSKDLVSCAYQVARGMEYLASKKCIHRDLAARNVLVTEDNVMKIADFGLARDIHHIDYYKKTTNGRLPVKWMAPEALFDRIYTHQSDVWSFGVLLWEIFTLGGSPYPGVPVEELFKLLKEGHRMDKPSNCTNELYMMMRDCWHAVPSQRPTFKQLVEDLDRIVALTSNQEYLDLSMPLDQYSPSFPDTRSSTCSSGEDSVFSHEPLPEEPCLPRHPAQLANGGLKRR

[11] = target: FGFR3 (UniProt P22607); assay: as above
[12] = target: EPHB1 (UniProt P54762); assay: as above
Chain of EPHB1 (P54762 whole entry, looked up): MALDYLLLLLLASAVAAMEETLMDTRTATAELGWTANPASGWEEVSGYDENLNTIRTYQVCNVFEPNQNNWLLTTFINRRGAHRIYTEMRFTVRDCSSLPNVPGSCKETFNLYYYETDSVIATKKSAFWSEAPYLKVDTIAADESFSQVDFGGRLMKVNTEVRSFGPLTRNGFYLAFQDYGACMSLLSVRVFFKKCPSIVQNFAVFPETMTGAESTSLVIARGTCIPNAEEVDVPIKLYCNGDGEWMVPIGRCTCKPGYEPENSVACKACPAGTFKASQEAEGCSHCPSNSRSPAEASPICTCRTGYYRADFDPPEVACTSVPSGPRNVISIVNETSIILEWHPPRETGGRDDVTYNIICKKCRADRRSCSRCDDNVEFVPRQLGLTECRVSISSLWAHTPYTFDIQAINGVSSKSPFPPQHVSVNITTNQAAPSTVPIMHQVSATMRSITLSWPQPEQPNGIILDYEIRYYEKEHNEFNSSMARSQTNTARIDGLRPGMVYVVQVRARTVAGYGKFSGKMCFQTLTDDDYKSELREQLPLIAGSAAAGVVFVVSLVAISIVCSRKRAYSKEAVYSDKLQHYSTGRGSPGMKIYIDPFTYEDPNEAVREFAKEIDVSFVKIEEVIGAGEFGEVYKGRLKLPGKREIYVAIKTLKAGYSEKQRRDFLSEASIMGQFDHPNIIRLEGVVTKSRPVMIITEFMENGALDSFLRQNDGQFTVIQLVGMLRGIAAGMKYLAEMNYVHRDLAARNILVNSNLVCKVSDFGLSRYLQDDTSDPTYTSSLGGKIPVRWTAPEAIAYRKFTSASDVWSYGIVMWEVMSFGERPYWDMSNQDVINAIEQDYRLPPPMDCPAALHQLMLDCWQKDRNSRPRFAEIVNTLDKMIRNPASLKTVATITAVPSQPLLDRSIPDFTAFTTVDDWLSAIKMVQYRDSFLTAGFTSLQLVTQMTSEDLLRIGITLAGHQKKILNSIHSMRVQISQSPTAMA

[13] = system: Fer (mouse); assay: as above
[14] = target: SHP2-C SH2; assay: SH2 binding enrichment of the phosphorylated peptide, bacterial display (enrichment ratio); higher = better substrate or ligand; peptides without Tyr show the background
[15] = target: c-Src SH2; assay: as above
[16] = target: Grb2 SH2 (UniProt P62993); assay: as above
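Throughout, for SH2 binding enrichment of the phosphorylated peptide, bacterial display: peptide library displayed on the E. coli surface as eCPX fusions, selected cells deep-sequenced, score is each peptide's frequency after selection divided by its frequency in the input.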
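Throughout, for phosphorylation enrichment, bacterial display: 11-residue human phosphosite peptides and single-mutation variants displayed on the E. coli surface, counted by deep sequencing, each peptide's frequency after selection divided by its frequency in the unselected input library; frequency after pTyr selection over input frequency; kinase dosed for 20-30% of maximal phosphorylation in three min.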

| SH2 binding enrichment [14] | SH2 binding enrichment [15] | SH2 binding enrichment [16] | Sequence | phosphorylation enrichment [1] | phosphorylation enrichment [2] | phosphorylation enrichment [3] | phosphorylation enrichment [4] | phosphorylation enrichment [5] | phosphorylation enrichment [6] | phosphorylation enrichment [7] | phosphorylation enrichment [8] | phosphorylation enrichment [9] | phosphorylation enrichment [10] | phosphorylation enrichment [11] | phosphorylation enrichment [12] | phosphorylation enrichment [13] |
| --- | --- | --- | --- | --- | --- | --- | --- | --- | --- | --- | --- | --- | --- | --- | --- | --- |
| 0.574 | 0.567 | 0.754 | AASTDYNKRGD [PDHA1_Y242_Y243N] | 0.618 | 0.67 | 0.509 | 0.453 | 0.578 | 0.313 | 0.37 | 0.505 | 0.515 | 0.452 | 0.451 | 0.453 | 0.386 |
| 0.735 | 0.628 | 0.902 | ACQSLYGGFVE [MVD_Y164_R161Q] | 7.59 | 0.7 | 8.54 | 1.14 | 0.949 | 1.53 | 11.1 | 0.945 | 0.775 | 0.567 | 0.665 | 0.719 | 0.744 |
| 0.556 | 0.466 | 0.701 | ADDSFYTVRSA [ZAP70_Y493_A495V_YF] | 1.53 | 0.734 | 1.22 | 0.552 | 0.884 | 0.478 | 1.21 | 0.999 | 0.829 | 0.444 | 0.748 | 0.439 | 0.489 |
| 0.919 | 0.714 | 0.796 | ADLVQYYMEHH [PTPN11_Y80_E76D] | 0.84 | 0.751 | 0.967 | 0.642 | 1.18 | 0.806 | 0.668 | 1.12 | 0.914 | 1.04 | 1.18 | 1.16 | 0.464 |
| 0.552 | 0.403 | 0.719 | ADRAAYLQNLN [MYH1_Y389_K386R] | 0.42 | 0.679 | 0.334 | 0.362 | 0.604 | 0.338 | 0.336 | 0.699 | 0.604 | 0.629 | 0.441 | 0.563 | 0.364 |
| 0.975 | 0.589 | 0.852 | AEDEDYESVGA [SYKtide_2014] | 0.616 | 0.938 | 0.658 | 0.49 | 1.29 | 0.672 | 0.586 | 1.44 | 1.26 | 0.62 | 0.937 | 0.815 | 0.655 |
| 1.49 | 1.19 | 0.963 | AELVPYYMEHH [PTPN11_Y80_Q79P] | 1.28 | 0.733 | 0.736 | 0.552 | 0.916 | 0.635 | 0.626 | 0.995 | 0.757 | 0.822 | 0.792 | 0.778 | 0.513 |
| 0.376 | 0.35 | 0.788 | AFGNLYGSRKQ [YIPF7_Y59_YF] | 1.09 | 0.657 | 2.93 | 0.519 | 0.526 | 0.531 | 0.718 | 0.55 | 0.505 | 0.397 | 0.398 | 0.357 | 0.409 |
| 0.679 | 0.615 | 0.685 | AFPVSYSSPGA [RET_Y687_S690P] | 0.475 | 0.572 | 0.422 | 0.512 | 0.704 | 0.478 | 0.518 | 0.616 | 0.508 | 0.423 | 0.466 | 0.442 | 0.468 |

Second part, the sequence before the results:

| Sequence | SH2 binding enrichment [14] | SH2 binding enrichment [15] | SH2 binding enrichment [16] | phosphorylation enrichment [1] | phosphorylation enrichment [2] | phosphorylation enrichment [3] | phosphorylation enrichment [4] | phosphorylation enrichment [5] | phosphorylation enrichment [6] | phosphorylation enrichment [7] | phosphorylation enrichment [8] | phosphorylation enrichment [9] | phosphorylation enrichment [10] | phosphorylation enrichment [11] | phosphorylation enrichment [12] | phosphorylation enrichment [13] |
| --- | --- | --- | --- | --- | --- | --- | --- | --- | --- | --- | --- | --- | --- | --- | --- | --- |
| AAESTYDKILK [GDNF_Y156_T154S] | 0.672 | 5.23 | 1.08 | 0.719 | 0.563 | 1.75 | 0.401 | 0.681 | 0.508 | 0.76 | 0.886 | 0.682 | 0.391 | 0.586 | 0.463 | 0.418 |
| AAPAAYDAADT [GAMT_Y27] | 0.654 | 1.11 | 0.839 | 0.513 | 0.782 | 0.495 | 0.461 | 1.1 | 0.5 | 0.522 | 0.97 | 0.857 | 0.529 | 0.683 | 0.479 | 0.526 |
| AATTAYSKPKQ [MAP3K7_Y405_R410Q] | 0.57 | 0.477 | 0.648 | 0.063 | 0.121 |  |  |  |  |  |  | 0.257 |  |  |  |  |
| AAVDTYCRHNY [HLA-DRB1_Y107] | 0.777 | 0.516 | 0.731 | 0.461 | 0.755 | 0.531 | 0.479 | 0.871 | 0.527 | 0.548 | 0.914 | 0.911 | 0.451 | 0.571 | 0.507 | 0.442 |
| ACQGKYTPSSQ [ALDOA_Y343_G347S] | 0.887 | 0.553 | 0.928 | 0.449 | 0.392 | 0.417 | 0.404 | 0.542 | 0.389 | 0.433 | 0.579 | 0.421 | 0.362 | 0.466 | 0.346 | 0.425 |
| ADCRFYAFPQM [GAMT_Y223_YF] | 0.653 | 0.526 | 0.778 | 1.35 | 2.39 | 0.92 | 7.18 | 2.44 | 3.79 | 0.76 | 1.57 | 1.45 | 0.719 | 1.03 | 3.25 | 6.04 |
| AEPPDYSPVTH [ADGRG2_Y285] | 0.611 | 0.477 | 0.836 | 0.417 | 0.792 | 0.598 | 0.491 | 1.66 | 0.582 | 0.542 | 1.06 | 0.836 | 0.54 | 0.786 | 0.817 | 0.764 |
| AEVIWYKGDEE | 0.531 | 0.446 | 1.11 | 0.303 | 0.616 | 0.414 | 0.343 | 1.26 | 0.483 | 0.369 | 1.07 | 1.08 | 0.359 | 0.636 | 0.41 | 0.342 |
